# Measurements as given in patent US20240327530A1 (ICHNOS SCIENCES, published 2024).
# T1: Human IL-1RAP, membrane-bound on human cells (HaCaT, dermal fibroblasts, neutrophils, PBMC, whole blood) (human, UniProt Q9NPH3 21-570)
# T1 sequence: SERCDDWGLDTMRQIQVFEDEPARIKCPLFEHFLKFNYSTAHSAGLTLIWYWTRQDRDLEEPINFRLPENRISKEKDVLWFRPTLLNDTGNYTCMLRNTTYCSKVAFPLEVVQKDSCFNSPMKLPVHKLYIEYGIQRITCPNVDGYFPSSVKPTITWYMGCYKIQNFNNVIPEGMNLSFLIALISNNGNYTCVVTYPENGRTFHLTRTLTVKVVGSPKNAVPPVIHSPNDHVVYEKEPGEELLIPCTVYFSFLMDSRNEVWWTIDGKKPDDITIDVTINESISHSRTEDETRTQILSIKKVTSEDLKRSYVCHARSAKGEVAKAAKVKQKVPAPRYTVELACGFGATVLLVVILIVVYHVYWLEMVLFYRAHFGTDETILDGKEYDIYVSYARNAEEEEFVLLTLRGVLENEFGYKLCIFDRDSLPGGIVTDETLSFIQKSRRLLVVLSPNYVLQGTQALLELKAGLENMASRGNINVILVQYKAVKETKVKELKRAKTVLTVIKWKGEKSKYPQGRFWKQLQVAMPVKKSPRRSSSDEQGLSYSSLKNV
# T2: Recombinant mouse IL-1RAP-his (Sino Biologicals, catalog no. 52657-M08H) (mouse, UniProt Q61730 21-350)
# T2 construct: Bought; not shown: His tag of the bought protein
# T2 sequence: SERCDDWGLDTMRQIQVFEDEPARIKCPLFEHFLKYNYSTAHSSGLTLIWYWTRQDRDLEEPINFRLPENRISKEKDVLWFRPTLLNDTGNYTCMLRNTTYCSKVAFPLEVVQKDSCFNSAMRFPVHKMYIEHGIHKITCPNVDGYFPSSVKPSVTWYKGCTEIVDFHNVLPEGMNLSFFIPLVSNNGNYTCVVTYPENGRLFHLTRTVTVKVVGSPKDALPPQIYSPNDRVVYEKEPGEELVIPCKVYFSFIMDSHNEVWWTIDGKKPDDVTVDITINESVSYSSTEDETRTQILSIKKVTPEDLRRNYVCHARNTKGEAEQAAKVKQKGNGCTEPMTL
# B1: Anti-IL-1RAP-C8-RecC-ES-IgG1LALA (antibody, V domains shown)
# VH: QVQLVQSGAEVKKPGSSVKVSCKASGSPAEPYAIQWVRQAPGQGLEWMGYIIPSLGGYDYAQKFQGRVTITADESTSTAYMELSSLRSEDTAVYYCARGQTLYESGRQFDIWGQGTLVTVSS
# VL: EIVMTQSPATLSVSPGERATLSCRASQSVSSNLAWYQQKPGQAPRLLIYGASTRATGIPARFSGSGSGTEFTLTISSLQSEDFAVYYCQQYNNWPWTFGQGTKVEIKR
# notes: also called ISB 880-C8-recC-ES
# B2: Anti-IL-1RAP-C3-A3 mmIgG2a LALA (antibody, V domains shown)
# VH: EVQLLESGGGLVQPGGSLRLSCAASGFIFSHYGMSWVRQAPGKGLEWVSAISYDGEGTLYADSVKGRFTISRDNSKNTLYLQMNSLRAEDTAVYYCARFRYYTAFDYWGQGTLVTVSS
# VL: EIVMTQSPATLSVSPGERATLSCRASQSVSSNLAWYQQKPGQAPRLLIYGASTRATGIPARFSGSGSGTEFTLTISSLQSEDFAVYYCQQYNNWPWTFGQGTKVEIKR
# notes: also called anti-IL-1RAP-C3-A3 mouse IgG2a LALA
# Legend:
# [1] = target: T1, Human IL-1RAP, membrane-bound on human …; test: cell-based or functional assay
# [2] = target: T2, Recombinant mouse IL-1RAP-his (Sino …); test: SPR, mouse IgG2a LALA captured by anti-mouse Fc, mouse IL-1RAP-his as analyte, 1:1 fit
# Description: Surface plasmon resonance (SPR) was used to measure the binding affinities of mouse IgG2a LALA molecules for mouse IL-1RAP. Affinity was measured on a BIACORE™ T200 instrument (BIACORE™ GE […]®) at 25° C. and analyzed with the BIACORE™ T200 Evaluation Software (v3.1). Measurements were performed on Series S CM5 sensor chips (BIACORE™ T200, BIACORE™, GE […]®, catalog no. BR100530) coupled with anti-mouse IgG Fc (BIACORE™, GE […]®, catalog no. BR100838) using a commercial amine coupling kit (BIACORE™, GE […]®, catalog no. BR100050). SPR measurements were performed with commercially available recombinant mouse IL-1RAP-his (Sino Biologicals, catalog no. 52657-M08H). The affinity to mouse IL-1RAP was assessed by immobilizing anti-mouse IL-1RAP mouse IgG2a LALA molecule and using mouse IL-1RAP protein as analyte. Around 150 RU of mouse IgG2a LALA was captured on fc2 of a Series S CM5 sensor chip coupled with anti-mouse IgG Fc. Mouse IL-1RAP-his was injected in multi cycle kinetic at different concentrations ranging from 0.14 to 100 nM, in HBS-EP+ buffer (BIACORE™, GE […]®, catalog no. BR100669) at a flow rate of 30 μl/min for 3 min on fc1 and fc2 (fc1 being used as reference). Dissociation was monitored for 15 min. After each cycle, the surface was regenerated with 60 μl of regeneration solution provided with anti-mouse IgG Fc capture kit (BIACORE™ GE […]®, catalog no. BR100838). Experimental data were processed using the 1:1 Langmuir kinetic fitting model. Measurements included zero-concentration samples for referencing. Chi², U- and residual values were used to evaluate the quality of a fit between the experimental data and individual binding models.
binder,measurement,setting,value
B1,"human whole blood, IL-1alpha stimulation, IL-6 release, mean EC50 of inhibition",[1],9.5 nM
same,"human whole blood, IL-1alpha stimulation, IL-8 release, mean EC50 of inhibition",[1],14.2 nM
same,"human whole blood, IL-1alpha stimulation, MCP-1 release, mean EC50 of inhibition",[1],11.1 nM
same,"human whole blood, IL-1alpha stimulation, MIP-1alpha release, mean EC50 of inhibition",[1],15 nM
same,"human whole blood, IL-1alpha stimulation, MIP-1beta release, mean EC50 of inhibition",[1],89 nM
same,"human whole blood, IL-1beta stimulation, IL-6 release, mean EC50 of inhibition",[1],8.8 nM
same,"human whole blood, IL-1beta stimulation, IL-8 release, mean EC50 of inhibition",[1],24.7 nM
same,"human whole blood, IL-1beta stimulation, MCP-1 release, mean EC50 of inhibition",[1],17.7 nM
same,"human whole blood, IL-1beta stimulation, MIP-1alpha release, mean EC50 of inhibition",[1],16 nM
same,"human whole blood, IL-1beta stimulation, MIP-1beta release, mean EC50 of inhibition",[1],53.3 nM
B2,Kd,[2],0.545 nM
same,koff,[2],7.46e-05 s⁻¹
same,kon,[2],138000 M⁻¹ s⁻¹
